B1: Capzb intron WT transcript with adapters (ssRNA)
RNA: AGUUGUACAGUCCGACGAUGCGGUGGCCUUCUCCUGUCUCUGCCUUUGCCCACGGCUGCCAGGUUCUUGUUCGGCAUUGCUGUUGCUCUCUUGCUGUGGCUUCACCCUCUCUGAACACUCUCUGUAGUGCAGUCGUCGAGUGUCAACG

Columns and labels:
[1] = target: T1, PTBP1 (GST-SBP-PTBP1) (UniProt P26599-1 1-531); assay: fluorescence polarization
[2] = target: T1, PTBP1 (GST-SBP-PTBP1); assay: bead pull-down with RT-qPCR

Binder	Kd [1]	binding result [2]
AUCUCUUGAUGCUAUCC (ssRNA) [Capzb exon oligo]	~6 nM	
CUUUCUCUCAAGCU (ssRNA) [Fnbp1 exon oligo]	~8 nM	
B1		binds
CUCUCUCUCUCUCUCUC (ssRNA) [Fnbp1 intron oligo]	~2 nM	
CUCUCUGAACACUCUCU (ssRNA) [Capzb intron oligo]	~3 nM	
